Experimental findings from article PMC10160976 (Proceedings of the National Academy of Sciences of the …, 2023) are described below.

Some results are limits rather than exact numbers.

The target of data set [1] is T1, human LPL^S132A/R297A (inactive lipoprotein lipase mutant) (human, UniProt P06858 28-475, S132A | R297A).
T1 sequence (looked up): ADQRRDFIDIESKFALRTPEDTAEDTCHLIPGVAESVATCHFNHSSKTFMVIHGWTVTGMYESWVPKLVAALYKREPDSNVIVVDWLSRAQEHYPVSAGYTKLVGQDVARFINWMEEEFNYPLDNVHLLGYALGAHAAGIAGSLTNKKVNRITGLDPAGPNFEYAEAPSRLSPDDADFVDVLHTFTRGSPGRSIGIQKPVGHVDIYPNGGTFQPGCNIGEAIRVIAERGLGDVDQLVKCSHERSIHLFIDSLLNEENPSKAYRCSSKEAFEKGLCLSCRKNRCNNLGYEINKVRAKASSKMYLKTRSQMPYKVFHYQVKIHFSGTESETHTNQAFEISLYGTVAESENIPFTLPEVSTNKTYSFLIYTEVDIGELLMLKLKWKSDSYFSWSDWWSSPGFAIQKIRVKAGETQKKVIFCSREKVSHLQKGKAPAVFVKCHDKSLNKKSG
Kind of data set: cell-based or functional assay.

Data set [2] addresses T1, human LPL^S132A/R297A (inactive …). As to the kind of experiment: HDX-MS.

B1: APOC2^wt (apolipoprotein C2, N-terminal 6xHis-tag) (natural protein, UniProt P02655 23-101, looked up)
chain: TQQPQQDEMPSPTFLTQVKESLSSYWESAKTAAQNLYEKTYLPAVDEKLRDLYSKSTAAMSTYTGIFTDQVLSVLKGEE
Regarding B1, the “onset of LPL aggregation (turbidity, proxy for Tm) against APOC2^Q70E” value in data set [1] is greater than 20 °C.

B2: soluble truncated human GPIHBP1 (residues 1 to 131) (domain or fragment, UniProt Q8IV16 21-151, looked up)
chain: QTQQEEEEEDEDHGPDDYDEEDEDEVEEEETNRLPGGRSRVLLRCYTCKSLPRDERCNLTQNCSHGQTCTTLIAHGNTESGLLTTHSTWCTDSCQPITKTVEGTQVTMTCCQSSLCNVPPWQSSRVQDPTG
As for B2, the binding result in data set [2] is on record as “binds”.
